Patent publication US20220204624A1

How the values were obtained:
Test in all cases: Octet (BLI), global fit, 1:1 binding model
[1] = molecular target: cynomolgus CTLA-4 (cynomolgus) (UniProt G7PL88)
[2] = molecular target: cynomolgus LAG-3 (cynomolgus)
human CTLA-4 (human) = human CTLA-4 (human) (UniProt P16410)
human LAG-3 (human) = human LAG-3 (human) (UniProt P18627)
human LAG-3 (human), sequence (P18627 23-450 limits assumed): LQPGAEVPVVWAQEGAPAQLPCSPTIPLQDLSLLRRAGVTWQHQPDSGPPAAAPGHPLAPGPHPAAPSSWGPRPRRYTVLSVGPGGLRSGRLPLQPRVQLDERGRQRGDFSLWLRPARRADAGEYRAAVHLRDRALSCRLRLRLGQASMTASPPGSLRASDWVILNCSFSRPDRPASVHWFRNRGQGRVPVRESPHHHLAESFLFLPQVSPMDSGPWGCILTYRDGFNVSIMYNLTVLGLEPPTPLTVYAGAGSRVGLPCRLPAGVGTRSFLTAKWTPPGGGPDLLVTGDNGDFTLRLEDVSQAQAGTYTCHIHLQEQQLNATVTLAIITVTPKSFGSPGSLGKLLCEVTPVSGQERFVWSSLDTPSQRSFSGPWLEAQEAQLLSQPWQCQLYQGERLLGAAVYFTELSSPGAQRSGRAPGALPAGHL

human CTLA-4 (human), sequence (P16410 36-161 limits assumed): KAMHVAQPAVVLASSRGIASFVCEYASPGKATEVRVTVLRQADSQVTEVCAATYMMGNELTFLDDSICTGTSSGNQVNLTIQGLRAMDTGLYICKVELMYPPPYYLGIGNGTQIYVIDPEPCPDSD
cynomolgus CTLA-4 (cynomolgus), sequence (G7PL88 entry or part of it limits assumed, form in doubt): as the sequence (P16410 36-161 limits assumed) above, with S14N, L106M counted along it

With XmAb22841 (bispecific antibody) the Kd [1] was 17.6 nM, the Kd [2] was 1.3 nM and the Kd (human CTLA-4 (human)) was 4.6 nM. For the same substance, the Kd (human LAG-3 (human)) was 1.4 nM.
